{
  "source": "patent US20160368965A1",
  "about": "(IMMATICS BIOTECHNOLOGIES, published 2016)",
  "target": "T1, HLA-A*02:01 (human)",
  "T1 construct": "the tested peptide takes its place; also called peptide-receptive MHC molecules; MHC class I",
  "assay": "UV-ligand exchange, anti-β2m ELISA; grade of peptide exchange yield",
  "text": "Candidate peptides for T cell based therapies according to the present invention were further tested for their MHC binding capacity (affinity). The individual peptide-MHC complexes were produced by UV-ligand exchange, where a UV-sensitive peptide is cleaved upon UV-irradiation, and exchanged with the peptide of interest as analyzed. Only peptide candidates that can effectively bind and stabilize the peptide-receptive MHC molecules prevent dissociation of the MHC complexes. To determine the yield of the exchange reaction, an ELISA was performed based on the detection of the light chain (β2m) of stabilized MHC complexes. The assay was performed as generally described in Rodenko et al. (Rodenko et al., 2006).\n96 well MAXISorp plates (NUNC) were coated over night with 2 ug/ml streptavidin in PBS at room temperature, washed 4× and blocked for 1h at 37° C. in 2% BSA containing blocking buffer. Refolded HLA-A*02:01/MLA-001 monomers served as standards, covering the range of 15-500 ng/ml. Peptide-MHC monomers of the UV-exchange reaction were diluted 100 fold in blocking buffer. Samples were incubated for 1 h at 37° C., washed four times, incubated with 2 ug/ml HRP conjugated anti-β2m for 1h at 37° C., washed again and detected with TMB solution that is stopped with […]. Absorption was measured at 450 nm. […]",
  "data": [
    {"binder": "SLTEQVHSL", "note": "[SLTEQVHSL (SEQ ID NO: 141)]", "values": [
      {"measurement": "peptide exchange yield", "value": "50 to 75", "unit": "%"}
    ]}
  ]
}
